{"source": "patent US20240101654A1", "target": "recombinant full-length human Tau (Tau-441, (2N4R)) (human) (UniProt P10636)", "assay": "indirect ELISA, plate coated with recombinant full-length human Tau at 3 µg/ml", "data": [{"binder": "NI-502.4P3 (antibody, V domains shown) VH: EVQLVQSGAEVKKPGESLKISCKVSGYDFSKYWIGWVRQMPGKGLEWMGLIYPGDSDTRYSPSLEGQVSISADKSISAAYLQFSSLKASDSAMYYCVRKGYSAYLGGWFDPWGQGTLVTVSS VL: DIQLTQSPDSLAASLGERVTINCRSSQNIFYNSNNKNFLAWYQQKAGQSPKLLIYWASTRESGVPDRFSGSGSGTDFTLTISGLQAGDVAVYFCQQYFTDAPTFGGGTKVEIK", "values": [{"measurement": "EC50", "value": 15, "unit": "nM"}]}]}
